Consider 1 molecule from article PMC3288673.

In the data set the target is T1, Rev-Erbα (UniProt P20393 1-614).
T1 sequence: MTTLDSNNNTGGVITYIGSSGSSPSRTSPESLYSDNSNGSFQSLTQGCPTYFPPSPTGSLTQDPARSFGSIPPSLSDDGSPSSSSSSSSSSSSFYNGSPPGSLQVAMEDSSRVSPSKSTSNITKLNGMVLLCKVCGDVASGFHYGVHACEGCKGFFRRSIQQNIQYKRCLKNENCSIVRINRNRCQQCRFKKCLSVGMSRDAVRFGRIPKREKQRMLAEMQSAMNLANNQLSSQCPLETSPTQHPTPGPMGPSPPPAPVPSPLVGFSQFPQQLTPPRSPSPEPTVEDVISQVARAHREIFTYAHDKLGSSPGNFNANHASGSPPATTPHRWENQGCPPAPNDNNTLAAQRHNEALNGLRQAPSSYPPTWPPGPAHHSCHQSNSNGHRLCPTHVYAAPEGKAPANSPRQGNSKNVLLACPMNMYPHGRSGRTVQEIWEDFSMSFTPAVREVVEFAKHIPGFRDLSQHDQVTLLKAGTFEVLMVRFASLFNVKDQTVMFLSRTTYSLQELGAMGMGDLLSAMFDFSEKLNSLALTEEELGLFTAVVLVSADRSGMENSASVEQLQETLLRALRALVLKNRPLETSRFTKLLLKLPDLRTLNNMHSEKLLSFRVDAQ
Kind of data set: EMSA. For orientation: A gel shift assay detects complexes by their altered migration in electrophoresis.

B1: RevDR2 (dsDNA)
DNA 1: AGCTCCAACTAGGTCACTAGGTCAAAGGGA
DNA 2: TCGATCCCTTTGACCTAGTGACCTAGTTGG
For the molecule B1, the binding result is reported as “binds”.
